Measurements published in publication PMC7460627 (International Journal of Molecular Sciences, 2020).
Ends that are not written are not given here.

What was measured:
[1] = test system: lettuce eIF4E (all forms); assay: Comparison of VPg / m7GTP binding to eIF4E forms (competition, overall affinity)
Description: (§1) For optical characteristics of the instrument, see [36].

[2] = molecular target: lettuce eukaryotic translation initiation factor 4E, eIF4E^0 (susceptible cultivar) (lettuce); assay: other fluorescence titration; steady state decrease of eIF4E tryptophan intrinsic fluorescence upon titration by VPg or VPg peptide; 25 °C, 20 mM HEPES pH 7.5, 0.25 mM NaCl, 1 mM DTT
[3] = molecular target: lettuce eIF4E^1 (resistant cultivar; ∆(108–110)H and A186S) (lettuce); assay: other fluorescence titration; as a1, but eIF4E 0.5 µM pre-incubated with m7GTP 2 µM prior to titration by VPg; 25 °C
[4] = molecular target: lettuce eIF4E^2 (resistant cultivar; A70P) (lettuce); assay: as above
[5] = molecular target: lettuce eukaryotic translation initiation factor 4E, eIF4E^0 (susceptible cultivar) (lettuce); assay: as above
[6] = molecular target: lettuce eIF4E N-terminus-deleted form, eIF4E^0 [∆1–46] (lettuce); assay: other fluorescence titration; steady state decrease of eIF4E tryptophan intrinsic fluorescence upon titration by VPg or VPg peptide; 25 °C, 20 mM HEPES pH 7.5, 0.25 mM NaCl, 1 mM DTT
[7] = molecular target: lettuce eIF4E^1 (resistant cultivar; ∆(108–110)H and A186S) (lettuce); assay: as above
[8] = molecular target: lettuce eIF4E^2 (resistant cultivar; A70P) (lettuce); assay: as above
lettuce eIF4E = molecular target: T1, lettuce eIF4E (Lactuca sativa, UniProt A0A2J6L8Y7); assay: Peptide affinity from eIF4E intrinsic fluorescence decay; format: binding
T1 construct: to obtain untagged full-length eIF4E and eIF4E∆(1–46); made in house; host or cells: E. coli BL21-AI
Description: as §1

eIF4E = molecular target: T2, eIF4E (Lactuca sativa, UniProt A0A2J6L8Y7); assay: Stopped-flow kinetics, quenching of eIF4E tryptophan fluorescence; format: binding, lettuce
T2 construct: to obtain untagged full-length eIF4E and eIF4E∆(1–46); made in house; host or cells: E. coli BL21-AI
Experimental: We hypothesized that the 107–120 region could modulate the mechanism of association, the details of which cannot be grasped through equilibrium thermodynamics. Consequently, fast kinetics measurement were performed by stopped flow to compare VPg88–111 and VPg88–120 association with eIF4E (Figure 3).
(A) The quenching of eIF4E tryptophan fluorescence was monitored after mixing 0.3 µM eIF4E with 1 µM VPg88–111 (final concentration). The excitation wavelength was 283 nm. Inset, plots of 1/kobs versus 1/[peptide] at 2.5, 5, 7.5 and 10 µM peptide concentration. VPg88–111 open circles, VPg88–120, open triangles. (B) Stopped-flow traces of VPg88–111*–eIF4E complex formation acquired at 520 nm upon excitation at 480 nm. VPg88–111*: doubly labeled fluorescent derivative of VPg88–111.
The eIF4E tryptophan fluorescence decrease concomitant to association was monitored for several peptide concentrations (Figure S3). A single exponential model fitted satisfactorily with the experimental data allowing the determination of kobs, the apparent constant of the complex formation.
as §1

[9] = molecular target: VPg_(88–111)*, doubly labeled fluorescent derivative of VPg_(88–111) (lettuce mosaic virus (LMV strain AF199)); assay: other fluorescence titration; steady state titration by eIF4E of 250 nM VPg_(88–111)*, read by the AEDANS to fluorescein resonance energy transfer within the peptide; AEDANS excited at 337 nm; simple bimolecular equilibrium model; 25 °C, 20 mM HEPES pH 7.5, 0.25 mM NaCl, 1 mM DTT
[10] = molecular target: lettuce eukaryotic translation initiation factor 4E, eIF4E^0 (susceptible cultivar) (lettuce); assay: stopped-flow fluorescence kinetics; quenching of eIF4E tryptophan fluorescence after mixing 0.3 µM eIF4E with peptide (1 µM; 2.5, 5, 7.5 and 10 µM); excitation 283 nm; single exponential fit, kobs
[11] = molecular target: T3, lettuce eukaryotic translation initiation factor 4E, eIF4E^0 (susceptible cultivar) (lettuce, UniProt A0A2J6L8Y7 1-235)
T3 chain: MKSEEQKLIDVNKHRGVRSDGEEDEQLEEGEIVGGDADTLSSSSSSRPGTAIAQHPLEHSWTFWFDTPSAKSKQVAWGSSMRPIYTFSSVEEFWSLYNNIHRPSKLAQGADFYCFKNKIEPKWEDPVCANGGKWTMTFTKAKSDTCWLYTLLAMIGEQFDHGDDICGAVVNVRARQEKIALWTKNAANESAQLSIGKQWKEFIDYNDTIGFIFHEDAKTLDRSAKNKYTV

`Cn1c[n+]([C@@H]2O[C@H](COP(=O)([O-])OP(=O)(O)OP(=O)(O)O)[C@@H](O)[C@H]2O)c2nc(N)[nH]c(=O)c21` [m7GTP] was tested. Which “competition between VPg and m7GTP” value [1] did it give?
Its value is “compete for their binding to eIF4E”.

With VPg_(107–120) synthetic peptide as the molecule, how does the Kd [2] read?
The Kd was 852 nM.

With “LMV VPg from the non-resistance-breaking strain (LMV0) (natural protein)” as the molecule, how does the KD with m7GTP [3] read?
Its KD with m7GTP is 632 nM.

What about the KD with m7GTP [4] of the same molecule?
The KD with m7GTP was 703 nM.

What about the KD with m7GTP [5] of the same molecule?
The KD with m7GTP was 746 nM.

What about the Kd [6] of the same molecule?
Its Kd is 276 nM.

And the Kd [7]?
Its Kd is 340 nM.

What about the Kd [8] of the same molecule?
The Kd was 288 nM.

How did the “affinity for eIF4E, in words” value (lettuce eIF4E; VPg88–111 versus VPg88–120) turn out when VFSDIGLVQDAFGKERLKLLSGGE [VPg88–111] was run?
The value was “comparable affinities”.

What about the “dependence of 1/kobs or kobs on peptide concentration” value (eIF4E; 0.3 µM eIF4E, 2.5, 5, 7.5 and 10 µM peptide, single exponential fit) of the same molecule?
The value was “gave a straight line, featuring the pseudo first order nature of the association depending on ligand concentration”.

And the “kinetic model of complex formation” value (eIF4E; stopped flow, eIF4E tryptophan quenching)?
Its value is “one-step process”.

How did the Kd [9] turn out when “lettuce eukaryotic translation initiation factor 4E, eIF4E^0 (susceptible cultivar) (from UniProt A0A2J6L8Y7 1-235) (natural protein)” was run?
The Kd was 63 nM.

Which Kd (lettuce eIF4E) does the source give for LSGGEIESEHMRSG [VPg107–120] here?
The Kd was 852 ± 57 nM.

VPg_(88–111) synthetic peptide was tested. Which Kd [2] did it give?
The Kd was 72 nM.

How did the Kd (lettuce eIF4E) turn out when “VFSDIGLVQDAFGKERLKLLSGGEIESEHMRSG [VPg88–120]” was run?
The Kd was 67 ± 7 nM.

Which results are given for VPg_(88–120) synthetic peptide?
Kd [2]: 67 nM; k2 (second step of the two-step model, conformational transition of the bound peptide) [10]: 33 s⁻¹

B1: LMV VPg from the non-resistance-breaking strain (LMV0) (natural protein)
chain: GKGKRQRQKLRYRQARDNKVGIEVYGDDATMEHYFGAAYTEKGKKSGKTKGMGTKNRRFVNMYGYNPEDFSFIRFLDPLTGKTMDEQVFSDISLVQDAFSKERLKLLSEGEIESEHMRNGIRAYLVKNLTTAALEIDMTPHNSCQLGAKTNNIAGYVDREYELRQTGEARVVAPALIPKDNPITDEDIPVKHE
B1 was tested. Which Kd [11] did it give?
The Kd was 202 nM.

B2: whole VPg from LMV-AF199 strain (natural protein)
chain: GKGKRQRQKLRYRQARDNKVGIEVYGDDATMEHYFGAAYTEKGKKSGKTKGMGTKNRKFVNMYGYNPEDFSFIRFLDPLTGKTMDEQVFSDIGLVQDAFGKERLKLLSGGEIESEHMRSGIRAYLVKNLTTAALEIDMTPHNSCQLGIKTNNIAGFVDREYELRQTGEARVVAPALIPKDNPITDEDIPVKHE
For B2, which Kd [11] is on record?
The Kd was 82 nM.
